Assay: yeast display, Sf9 membrane polyspecificity reagent, FACS + sequencing; frameworks hold sequencing errors
Summary of the method: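 After 36–48 hours of galactose induction, yeast (Saccharomyces cerevisiae BJ5465) displaying a synthetic nanobody library were stained at 4 °C for 1 hour with 10% biotinylated, detergent-solubilized Sf9 membrane reagent. Streptavidin microbeads enriched the stained cells before FACS sorting into low and high (top ~1%) gates on anti-HA and streptavidin fluorescence. Each clone's polyreactivity label reflects its gate of origin.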

QVQLVESGGGLVQAGGSLRLSCAASGLIFTDNTRGWYRQAPGKEREFVADISSSGGITYYADSVKGRFTFSRDNAKNTVYLQMNSLKPEDTAVYYCNAERGYDYLDGYPFFIYDYWGQGTQVTVSS
polyreactivity (PSR sort gate): low polyreactivity

QVQLVESGGGLVQAGGSLRLSCAASGLIFTTNAMGWYRQAPGKERELVAAISTSTGRTYYADSVKGRFTISRDTAKNTVYFQMNSLKPEDTAVYYCAADGFLSYYGFWRYEYWGQGTQVTVSS
polyreactivity (PSR sort gate): high polyreactivity

QVQLVESGGGLVQAGGSLRLSCAASGLIFTYYAMGWYRQAPGKERELVAAIRVNGGSTYYADSVKGRFTISRDNAKNTVYFQMNSLKPEDTAVFYCAADYYRLRAASYLIRLNYWGQGTQVTVSS
polyreactivity (PSR sort gate): high polyreactivity

QVQLVESGGGLVQAGGSLRLSCAASGLIFTYYAMGWYRQAPGKERELVAAITSGGRTNYADSVKGRFTISRDNAKNTVYLQMNSLKPEDTAVYYCAATSSWRANYRTWVYRYDYWGQGTQVTVSS
polyreactivity (PSR sort gate): high polyreactivity

QVQLVESGGGLVQAGGSLRLSCAASGLIFTYYDIGWYRQEPGKERELVASISWDGGRTYYADSVKGRFTIARDNAKKTVYLQMNSLKPEDTAVYYCAKRLGGSPIQARGDFWGQGTQVTVSS
polyreactivity (PSR sort gate): low polyreactivity

QVQLVESGGGLVQAGGSLRLSCAASGLIFVGYAMGWYRQAPGKERELVAAITSGGSTYYADSVKGRFTISRDNAKNTVYLQMNSLKPEDTAVYYCAAQQGISNGTGVSATNPMDYWGHGTQVTVSS
polyreactivity (PSR sort gate): low polyreactivity

QVQLVESGGGLVQAGGSLRLSCAASGLIFVNAMGWYRQAPGKEREFVAAITYSTGSTYYADSVKGRFTISRDNAKNTVYLQMNSLKPEDTAVYYCAKDRSGHGTERDYWGQGTQVTVSS
polyreactivity (PSR sort gate): low polyreactivity

QVQLVESGGGLVQAGGSLRLSCAASGLIFVQYVMGWYRQAPGKERELVAAITDDGNTYYADSVKGRFTISRDNAKNTVYLQMKSLKPEDTAVYYCNAVLRSYDFWPGYGYWGQGTQVTVSS
polyreactivity (PSR sort gate): low polyreactivity

QVQLVESGGGLVQAGGSLRLSCAASGLIFVWYAMGWYRQAPGKERELVAAITRSGGSTYYADSVKGRFTISRDNAKNTVYLQMNSLKPEDTAVYYCAARWKFPSSFYYWGQGTQVTVSS
polyreactivity (PSR sort gate): high polyreactivity

QVQLVESGGGLVQAGGSLRLSCAASGLIFVYNAMGWYRQAPGKEREFVAGITSGGSTNYADSVKGRFTISRDNAKNPVYLQMNSLKPEDTAVYDCAAGYYDLYLWWGYDYWGQGTQLTVSS
polyreactivity (PSR sort gate): high polyreactivity

QVQLVESGGGLVQAGGSLRLSCAASGLIFWLNAMGWYRQAPGKDCELVAAISRGGSTNYADSVKGRFTISRDNAKNTVYFQMNSLKPEDSAVYYCAAGSRRAAWYDYSYPYGYWGQGTQVTVSS
polyreactivity (PSR sort gate): high polyreactivity

QVQLVESGGGLVQAGGSLRLSCAASGLIFWYYAMGRYRQAPGKERELVASISSGGDTTYADSVKGRFTISRDNAKNTVYLQMNSLKPEDTAVYYGAAERYVRVWVAGILHYDYWGQGTQVTVSS
polyreactivity (PSR sort gate): low polyreactivity

QVQLVESGGGLVQAGGSLRLSCAASGLIFYANVMGWYRQAPGKERELVAAISRSGTSTYYADSVKGRFTISRDNAKNTVYFQMNSLKPEDTAVYYCAADFVKRQANRQFDYWGQGTQVTVSS
polyreactivity (PSR sort gate): high polyreactivity

QVQLVESGGGLVQAGGSLRLSCAASGLIFYDNLGWYRQAPGKDRELVAAISSSGGSTSYADSVKGRFTISRDNAKNTVYLPMNSLKPEDTAVYYCAAKWSHVRDGPKYDYWGQGTQVTVSS
polyreactivity (PSR sort gate): low polyreactivity

QVQLVESGGGLVQAGGSLRLSCAASGLIFYDNMGWYRQAPGKERELVAAISSSGGSTNYADSVKGRFTISRDNAKNTVYLQMNSLKPEDTAVYYCAADSYPAYLGFVGFDYWGQGTQVTVSS
polyreactivity (PSR sort gate): low polyreactivity

QVQLVESGGGLVQAGGSLRLSCAASGLIFYDNMGWYRQPPGKERELVAAITVSGGSTYYADSVKGRFTISRDNAKNTVYLQMKSLKPEDTAVYYCARELLSPTYQRWYYYWGQGTQVTVSS
polyreactivity (PSR sort gate): low polyreactivity

QVQLVESGGGLVQAGGSLRLSCAASGLIFYFYAMGWYRQAPGKERELVAGITNVGSTNYADSVKGRFTISRDNAKNTVYLQMNSLKPEDTAVYYCAAQYYTVRSTYDYWGQGTQVTVSS
polyreactivity (PSR sort gate): high polyreactivity

QVQLVESGGGLVQAGGSLRLSCAASGLIFYGNAMGWYRQAPGKERELVAAISWSGGNTSYADSVKGRFTISRDNAKNTVYLQMNSLKPEDTAVYYCAVDNTGRSWPYDYWGQGTQVTVSS
polyreactivity (PSR sort gate): low polyreactivity

QVQLVESGGGLVQAGGSLRLSCAASGLIFYKNAMGSYRQAPGKEREFVAAISRSGASTYYSDSVMGRFTISRDYAKNTVYLQMKSLKPEVTEVYLCAARAGANYRMDYWGQGTQVTVSS
polyreactivity (PSR sort gate): high polyreactivity

QVQLVESGGGLVQAGGSLRLSCAASGLIFYRNAMGWYRQAPGKERELVAAIRFSTGSTYYADSVKGRFTISRDNAKNTVYLEMNSLKPEDTAVYYCAAALPGYGDYYYWGQGTQVTVSS
polyreactivity (PSR sort gate): high polyreactivity

QVQLVESGGGLVQAGGSLRLSCAASGLIFYRYAMGWYRQAPGKERELVAAISRRGGSTYYADSVKGRFTISRDNAKNTVYLQMNRLKAEETAVYYCAARLPGYYGIGDYWGQGTQVTVSS
polyreactivity (PSR sort gate): high polyreactivity

QVQLVESGGGLVQAGGSLRLSCAASGLIFYRYAMGWYRQAPGKERELVADISWSGGTTYYADSVKGRFTISRDNAKNTVYLQMNSLKPEDTAVYYCAARSVPSPERGFYYWGQGTQVTVSS
polyreactivity (PSR sort gate): high polyreactivity

QVQLVESGGGLVQAGGSLRLSCAASGLIFYRYTMGWNRQAPGKERELVAGITSGGRTYYADSVKGRFTISRDNAKNTFYLQMNSLKPEDTAVYYCAARYFPARTRYYYWGQGTQVTVSS
polyreactivity (PSR sort gate): high polyreactivity

QVQLVESGGGLVQAGGSLRLSCAASGLIFYSYAMGWYRQAPGKERELVAAINGGGGSTYYADSVKGRFTISRDNAKNTVYFQMNSLKPEDTAVSYCAAPYYRLTGWSRYDYWGQGTQVTVSS
polyreactivity (PSR sort gate): high polyreactivity

QVQLVESGGGLVQAGGSLRLSCAASGLIFYWNTMGWYRQAPGKERELVAYISGGGGRTYYADSVKGRFTISRDNAKNTVYLQMNSLKPEDTAVYYCAAKLYGYRSGYYYWGQGTQVTVSS
polyreactivity (PSR sort gate): high polyreactivity

QVQLVESGGGLVQAGGSLRLSCAASGLIFYYYAMGWYRQAPGKERELVAAITRGGRTYYADSVKGRFTISRDNAKNTVYLQMNSLKPEDTAVYYCAAGWYQGFDYWGQGTQVTVSS
polyreactivity (PSR sort gate): high polyreactivity

QVQLVESGGGLVQAGGSLRLSCAASGLIFYYYAMGWYRQAPGQERELVAAITSDDRTYYADSVKGRFTISRDNAKNTVYLQMNSLKPEDTAVYYCAARYHGYLPQYRKYGYGYWGQGTQVTVSS
polyreactivity (PSR sort gate): high polyreactivity

QVQLVESGGGLVQAGGSLRLSCAASGLIFYYYTMGWYRQAPGKERELVARITSSGGRTYYADSVKGRFTISRDNAKNTVYLQMNSLKPEDTAVYYCNARVPRYNGGSTMEYWGQGTQVTVSS
polyreactivity (PSR sort gate): high polyreactivity

QVQLVESGGGLVQAGGSLRLSCAASGLIIASYAMGWYRQAPGKERELVAAINTGGSTYYADSVKGRFTISRDNAKNTVYLQMNSLKPEDTAVYYCAARYTGLSYSRYGYWGQGTQVTVSS
polyreactivity (PSR sort gate): high polyreactivity

QVQLVESGGGLVQAGGSLRLSCAASGLIIPAYAMGWYRQAPGKEREMVATITWRGGSTYYADSVKGRFTISRDNAKNTVYLQMNSLKPEDTAVDYCATRPRYYYFRYDYWGQGSQVTVSS
polyreactivity (PSR sort gate): high polyreactivity

QVQLVESGGGLVQAGGSLRLSCAASGLIIWLYTLGWYRQAPGKESELVAAIDWSGGSTYYADSVKGRFTISRDNAKNTVYLQMNSLKPEDTAVYYCAADPEPSYRFDYWGQGTQVTVSS
polyreactivity (PSR sort gate): low polyreactivity

QVQLVESGGGLVQAGGSLRLSCAASGLIIYYNAMGWYRQAPGKERELVAAITSGGSTYYADSVKGRFTISRDNAKNTVYLQMNSLKPEDTAVYYCAAVPASYRYPMYYWGQGTQVTVSS
polyreactivity (PSR sort gate): low polyreactivity

QVQLVESGGGLVQAGGSLRLSCAASGLILDGYAMGWYRQAPGKERELVAAITRSGGRTYYADSVKGRFTISRDNAKNTVYLQMNSLKPEDTAVYYCAALGWSGRYRYDYWGQGTQVTVSS
polyreactivity (PSR sort gate): high polyreactivity

QVQLVESGGGLVQAGGSLRLSCAASGLILDYNDMGWYRQAPGKERELVASITGGGSTYYADSVKGRFTISRDNAKNTVYLQMNSLKPEDTAVYYCNADPVGVYGFDLDYWGQGTQVTVSS
polyreactivity (PSR sort gate): low polyreactivity

QVQLVESGGGLVQAGGSLRLSCAASGLILGSYAMGWYRQAPGKERELVAGISWSGGDTYYADSVKGRFTISRDNAKNTVYLQMNSLKPEDTAVYYCNTGGTFLDWVRRPFGFGYWGQGTQVTVSS
polyreactivity (PSR sort gate): low polyreactivity

QVQLVESGGGLVQAGGSLRLSCAASGLILGVYTMGWYRQAPGKEREFVASINFGGGSTYYADSVKGRFTISRDNAKNTVYLQMNSLKPEDTAVYYCNARSLGGGTRLYSYDYWGQGTQVTVSS
polyreactivity (PSR sort gate): low polyreactivity

QVQLVESGGGLVQAGGSLRLSCAASGLILGYYAMGWYRQAPGKERELVATIRRGASTFYADSVKGRFTISRDNAKNTVYLQLNSLKPEDTAVYYCAADTERSLAGGLYYWGQGTQVNVSS
polyreactivity (PSR sort gate): low polyreactivity

QVQLVESGGGLVQAGGSLRLSCAASGLILHINTMGWYRQAPGKERELVAAISWSGDSTYYSDSVKGRFTISRDNAKNTVYLQKNSLKPDDSAVYYGAADYWYFYTPYSYEYGYWGQGTQVTVSS
polyreactivity (PSR sort gate): high polyreactivity

QVQLVESGGGLVQAGGSLRLSCAASGLILHKYAMGGSRQAPGKERELVASINSGANTNYADSVKGRFTISRDNAKNTVYLQMNSLKPEDTAVYYCNADPGFRSGDYGYSSFDYWGQGTQVTVSS
polyreactivity (PSR sort gate): low polyreactivity

QVQLVESGGGLVQAGGSLRLSCAASGLILKYYAMGWYRQAPGKEREFVAAITRRGGITYYADSVKGRFTISRDNAKNTVYLQMNSLKPEDTAVYYCAADPKLGSLAYWRYSYPLYDYWGQGTQVTVSS
polyreactivity (PSR sort gate): low polyreactivity

QVQLVESGGGLVQAGGSLRLSCAASGLILSSNTMGWYRQAPGKERELVARIRRNDGNTYYADSVKGRFTISRDNAKNTVYLQMNSLKPEDTAVYYCAQYLAIGYYWGQGTQVTVSS
polyreactivity (PSR sort gate): low polyreactivity

QVQLVESGGGLVQAGGSLRLSCAASGLILYTYAMGCYRQAPGKERELVAAINSGGRTYYADSVKGRFTISRDNAKNTVYLQMNSLKPEDTAVYYCAADYGSRVRGFNYWGQGTQVTVSS
polyreactivity (PSR sort gate): low polyreactivity

QVQLVESGGGLVQAGGSLRLSCAASGLILYYYTIGWYRQAPGKERELVAAINSGGNTYYADSVKGRFTISRDNAKNTVYLQMNSLKPEDTAVYYCNAYRVRYKRSYDYWGQGTQVTVSS
polyreactivity (PSR sort gate): high polyreactivity
